Reference: the supplement of paper PMC9112550, “Optimization of the antimicrobial peptide Bac7 by deep mutational scanning” (BMC Biology, 2022)

The sequences below were run on Escherichia coli TOP10 (assay: shrunken log2 fold change of peptide-encoding DNA abundance (4.5 h post-induction vs induction); higher = less antimicrobial activity (less host growth inhibition)). Conditions: time post-induction: 4.5 h; library: site-saturation at positions 5, 18, 19, 20.
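Note: peptides expressed intracellularly from a pBAD plasmid library in pooled LB shake-flask culture, induced with 0.3% L-arabinose, DNA abundance read by NGS, three biological replicates, DESeq2 with apeglm shrinkage.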

In order of rising “shrunken log2 fold change” value:
1. RRIRTRPPRLPRPRPRPWVCPRP  -1.58
2. RRIRQRPPRLPRPRPRPVIIPRP  -1.01
3. RRIRARPPRLPRPRPRPYDKPRP  -0.865
4. RRIRLRPPRLPRPRPRPEYMPRP  -0.741
5. RRIRERPPRLPRPRPRPFPFPRP  -0.629
6. RRIRRRPPRLPRPRPRPHHSPRP  -0.57
7. RRIRQRPPRLPRPRPRPHMMPRP  -0.526
8. RRIRMRPPRLPRPRPRPFHHPRP  -0.419
9. RRIRQRPPRLPRPRPRPRFIPRP  -0.398
10. RRIRIRPPRLPRPRPRPDSHPRP  -0.379
11. RRIRLRPPRLPRPRPRPTLKPRP  -0.307
12. RRIRWRPPRLPRPRPRPFIAPRP  -0.291
13. RRIRTRPPRLPRPRPRPYYSPRP  -0.274
14. RRIRVRPPRLPRPRPRPRYEPRP  -0.273
15. RRIRVRPPRLPRPRPRPFRLPRP  -0.267
16. RRIRNRPPRLPRPRPRPYGHPRP  -0.256
17. RRIRRRPPRLPRPRPRPNIPPRP  -0.24
18. RRIRFRPPRLPRPRPRPCYQPRP  -0.229
19. RRIRYRPPRLPRPRPRPRCSPRP  -0.173
20. RRIRERPPRLPRPRPRPAHSPRP  -0.159
21. RRIRLRPPRLPRPRPRPSLDPRP  -0.142
22. RRIRWRPPRLPRPRPRPFKEPRP  -0.139
23. RRIRIRPPRLPRPRPRPYQHPRP  -0.136
24. RRIRVRPPRLPRPRPRPGHNPRP  -0.131
25. RRIRMRPPRLPRPRPRPSFLPRP  -0.121
26. RRIRMRPPRLPRPRPRPFCYPRP  -0.117
27. RRIRARPPRLPRPRPRPMNCPRP  -0.116
28. RRIRTRPPRLPRPRPRPVCFPRP  -0.104
29. RRIRWRPPRLPRPRPRPSSCPRP  -0.0941
30. RRIRWRPPRLPRPRPRPVKGPRP  -0.0905
31. RRIRMRPPRLPRPRPRPVKLPRP  -0.0873
32. RRIRRRPPRLPRPRPRPCMYPRP  -0.0801
33. RRIRERPPRLPRPRPRPSLCPRP  -0.0545
34. RRIRVRPPRLPRPRPRPHEPPRP  -0.0412
35. RRIRWRPPRLPRPRPRPRQQPRP  -0.0369
36. RRIRNRPPRLPRPRPRPVCMPRP  -0.0349
37. RRIRTRPPRLPRPRPRPVVHPRP  -0.0314
38. RRIRMRPPRLPRPRPRPCKYPRP  -0.0297
39. RRIRQRPPRLPRPRPRPQKVPRP  -0.0255
40. RRIRDRPPRLPRPRPRPDPCPRP  -0.0187
41. RRIRKRPPRLPRPRPRPCFRPRP  -0.0108
42. RRIRPRPPRLPRPRPRPWRDPRP  -0.00123
43. RRIRHRPPRLPRPRPRPYSIPRP  -9.97e-05
44. RRIRNRPPRLPRPRPRPIWRPRP  0.00377
45. RRIRCRPPRLPRPRPRPWCWPRP  0.0184
46. RRIRNRPPRLPRPRPRPPICPRP  0.0224
47. RRIRLRPPRLPRPRPRPGSHPRP  0.0329
48. RRIRARPPRLPRPRPRPHSTPRP  0.0355
49. RRIRFRPPRLPRPRPRPGQSPRP  0.0525
50. RRIRHRPPRLPRPRPRPTWDPRP  0.0552
51. RRIRFRPPRLPRPRPRPENIPRP  0.0737
52. RRIRCRPPRLPRPRPRPNCWPRP  0.078
53. RRIRIRPPRLPRPRPRPIRCPRP  0.0793
54. RRIRCRPPRLPRPRPRPMHFPRP  0.102
55. RRIRARPPRLPRPRPRPCLTPRP  0.158
56. RRIRLRPPRLPRPRPRPEIAPRP  0.167
57. RRIRIRPPRLPRPRPRPMWRPRP  0.19
58. RRIRQRPPRLPRPRPRPVGDPRP  0.203
59. RRIRPRPPRLPRPRPRPNSAPRP  0.204
60. RRIRDRPPRLPRPRPRPGPDPRP  0.217
61. RRIRERPPRLPRPRPRPGGRPRP  0.27
62. RRIRMRPPRLPRPRPRPEQYPRP  0.282
63. RRIRNRPPRLPRPRPRPPFGPRP  0.291
64. RRIRQRPPRLPRPRPRPAFAPRP  0.344
65. RRIRRRPPRLPRPRPRPRCAPRP  0.469
66. RRIRARPPRLPRPRPRPGFFPRP  0.509
67. RRIRCRPPRLPRPRPRPCAAPRP  0.514
68. RRIRWRPPRLPRPRPRPAFGPRP  0.53
69. RRIRDRPPRLPRPRPRPEWHPRP  0.623
70. RRIRNRPPRLPRPRPRPERWPRP  0.699
71. RRIRRRPPRLPRPRPRPTHRPRP  0.867
72. RRIRERPPRLPRPRPRPVMFPRP  0.934
73. RRIRDRPPRLPRPRPRPSAAPRP  1.02
74. RRIRWRPPRLPRPRPRPEADPRP  1.5
75. RRIRFRPPRLPRPRPRPPFRPRP  1.84
